Assay results: article PMC6962393 (2020)

The binders below were run against FN-B, recombinant human fibronectin extra domain B (EDB) as a single domain (human) (assay: ELISA).
Sequence of FN-B, recombinant human fibronectin extra domain B (EDB) as a single domain (human) (chain, as listed by the source): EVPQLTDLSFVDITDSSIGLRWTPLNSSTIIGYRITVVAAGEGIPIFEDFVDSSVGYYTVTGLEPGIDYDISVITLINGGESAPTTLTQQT
With WKCQPTNGYRIRCRRDSDCPGDCICRGNGYCG (designed binder) [Trx-MC-FN-030, Thioredoxin-A fusion of cystine-knot miniprotein MC-FN-030] the Kd was 234 nM. SVCAHYNTIRVRLCRRDSDCPGACICRGNGYCG (designed binder) [Trx-MC-FN-040, Thioredoxin-A fusion of cystine-knot miniprotein MC-FN-040] showed a Kd of 24 nM. For SVCKQANFVRIRLCRRDSDCPGACICRGNGYCG (designed binder) [Trx-MC-FN-060, Thioredoxin-A fusion of cystine-knot miniprotein MC-FN-060], the Kd was 10.3 nM. With PMCTQRKNRIRLCRRDSDCTGACICRGNGYCG (designed binder) [Trx-MC-FN-010, Thioredoxin-A fusion of cystine-knot miniprotein MC-FN-010] the Kd was 6.07 nM. SVCKNVSIMRIRLCRRDSDCPGACICRGNGYCG (designed binder) [Trx-MC-FN-050, Thioredoxin-A fusion of cystine-knot miniprotein MC-FN-050] was tested, and the Kd was 40.5 nM.

Each binder was assayed against FN-67B89, human fibronectin EDB flanked by its surrounding type III domains (human) (assay: ELISA).
Sequence of FN-67B89, human fibronectin EDB flanked by its surrounding type III domains (human) (chain, as listed by the source): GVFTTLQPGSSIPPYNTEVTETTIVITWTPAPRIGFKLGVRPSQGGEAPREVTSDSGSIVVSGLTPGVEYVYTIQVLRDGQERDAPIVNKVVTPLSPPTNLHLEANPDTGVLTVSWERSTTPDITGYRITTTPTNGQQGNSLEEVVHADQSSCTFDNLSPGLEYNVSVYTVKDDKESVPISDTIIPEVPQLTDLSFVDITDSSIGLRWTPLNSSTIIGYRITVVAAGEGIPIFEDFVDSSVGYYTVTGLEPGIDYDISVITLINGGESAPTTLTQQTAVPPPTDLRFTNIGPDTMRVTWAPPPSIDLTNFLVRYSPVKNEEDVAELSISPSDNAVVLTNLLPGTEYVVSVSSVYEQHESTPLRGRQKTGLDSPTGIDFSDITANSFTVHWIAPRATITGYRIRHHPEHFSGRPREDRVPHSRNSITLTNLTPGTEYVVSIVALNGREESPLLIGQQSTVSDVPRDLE
For WKCQPTNGYRIRCRRDSDCPGDCICRGNGYCG (designed binder) [Trx-MC-FN-030, Thioredoxin-A fusion of cystine-knot miniprotein MC-FN-030], the Kd was 232 nM. SVCAHYNTIRVRLCRRDSDCPGACICRGNGYCG (designed binder) [Trx-MC-FN-040, Thioredoxin-A fusion of cystine-knot miniprotein MC-FN-040] was tested, and the Kd was 29.4 nM. In the case of SVCKQANFVRIRLCRRDSDCPGACICRGNGYCG (designed binder) [Trx-MC-FN-060, Thioredoxin-A fusion of cystine-knot miniprotein MC-FN-060], the Kd is reported as 20.4 nM. In the case of PMCTQRKNRIRLCRRDSDCTGACICRGNGYCG (designed binder) [Trx-MC-FN-010, Thioredoxin-A fusion of cystine-knot miniprotein MC-FN-010], the Kd is reported as 10.5 nM. With SVCKNVSIMRIRLCRRDSDCPGACICRGNGYCG (designed binder) [Trx-MC-FN-050, Thioredoxin-A fusion of cystine-knot miniprotein MC-FN-050] the Kd was 67.8 nM.
